From patent publication US20200317776A1 (published 2020) come the findings set out here.

The target of test [1] is T1, human TREM2 Fc fusion (entire TREM2 ECD; only one Fc arm fused to TREM2) (human, UniProt Q9NZC2 19-174).
T1 construct: also called huTREM2-Fc; recombinant hTREM2
T1 sequence: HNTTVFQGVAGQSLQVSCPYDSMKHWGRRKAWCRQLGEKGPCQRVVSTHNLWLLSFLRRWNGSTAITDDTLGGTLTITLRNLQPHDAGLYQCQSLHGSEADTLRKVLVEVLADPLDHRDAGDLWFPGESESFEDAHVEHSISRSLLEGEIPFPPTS
Nature of the test: BLI, Fab, monovalent. As for the experimental part: Briefly, IgG's were loaded on-line onto AHQ sensors. Sensors were equilibrated off-line in assay buffer for 30 minutes and then monitored on-line for 60 seconds for baseline establishment. For avid binding measurement, sensors with loaded IgGs were exposed to 100 nM antigen (human TREM2 Fc fusion using the entire TREM2 ECD; only one Fc arm was fused to TREM2) for 3 minutes, afterwards they were transferred to assay buffer for 3 minutes for off-rate measurement. Monovalent binding measurements were obtained by loading human TREM2 Fe fusion antigens to AHQ sensor and followed by exposure to 100 nM TREM2 antibody Fab. Kinetics data were fit using a 1:1 binding model in the data analysis software provided by ForteBio. Assay was run at room temperature (25° C.).

The target in test [2] is T2, human TREM2 expressed on cells (human, UniProt Q9NZC2 19-230).
T2 construct: BW5147.G.1.4 cells stably expressing human TREM2 together with Dap12, or endogenous TREM2 of primary human myeloid cells; also called huT2 BW; hTREM2 expressing cell line
T2 sequence: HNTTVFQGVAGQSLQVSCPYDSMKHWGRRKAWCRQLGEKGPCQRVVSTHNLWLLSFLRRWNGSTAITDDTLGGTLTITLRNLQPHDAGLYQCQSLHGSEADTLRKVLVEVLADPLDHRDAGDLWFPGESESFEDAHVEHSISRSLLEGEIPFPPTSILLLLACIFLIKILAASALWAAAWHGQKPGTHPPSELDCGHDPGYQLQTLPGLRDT
The experiment in a line: FACS, hTREM2 BW cells. As for the experimental part:
To examine cell binding of anti-TREM2 antibodies, recombinant, human TREM2-expressing BW5147.G.1.4 cells (ATCC® TIB48™) were established by stably expressing either mouse TREM2 or human TREM2 together with Dap12 using viral infection. Cells were harvested by scraping, washed in PBS, counted and plated on 96-well U bottom plates at 1)(10⁵ cells/well. The plates were spun at 1,400 rpm for 3 minutes and primary anti-TREM2 or control antibodies were added in FACS buffer (PBS H2% FBS) and incubated on ice for one hour. Cells were subsequently centrifuged as before and washed thrice with FACS buffer. Cells were then incubated with anti-human PE conjugated secondary antibody (BD Biosciences) in FACS buffer for 30 minutes on ice. Cells were again washed thrice with FACS buffer and analyzed on a BD FACS Canto. Binding was measured as mean fluorescence intensity in the APC channel.

In test [3] the target is human TREM2/DAP12 fusion protein (human, UniProt O43914 41-113, limits assumed). Nature of the test: cell-based or functional assay.
human TREM2/DAP12 fusion protein, sequence (O43914 other isoform, or with tags, fused parts or gaps limits assumed): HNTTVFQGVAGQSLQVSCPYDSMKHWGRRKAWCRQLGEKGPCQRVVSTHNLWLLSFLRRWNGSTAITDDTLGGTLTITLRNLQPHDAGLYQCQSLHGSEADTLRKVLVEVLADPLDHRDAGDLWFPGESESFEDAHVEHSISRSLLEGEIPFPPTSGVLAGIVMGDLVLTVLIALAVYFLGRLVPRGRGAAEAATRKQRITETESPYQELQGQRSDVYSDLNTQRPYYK

B1: AL2p-h19 (antibody, human IgG1, V domains shown)
VH: QVQLVQSGAEVKKPGSSVKVSCKASGYAFSSSWMNWVRQAPGQGLEWMGRIYPGDGDTNYAQKFQGRATITADTSTSTAYMELSSLRSEDTAVYYCARLLRNQPGESYAMDYWGQGTLVTVSS
VL: DIVMTQTPLSLSVTPGQPASISCRSSQSLVHSNGYTYLHWYLQKPGQSPQLLIYKVSNRFSGVPDRFSGSGSGTDFTLKISRVEAEDVGVYYCSQSTRVPYTFGQGTKLEIK
notes: humanized, human IgG1; Fab and IgG formats under one id
Turning to B1, in test [1], the Kd was 193 nM. Further, the “cell binding (FOB)” value in test [2] was found to be 87 FOB. Also, in test [3], the “Soluble luciferase activation at 10 µg/ml Fold over control” value worked out at 4.97 fold over control.

B2: AL2p-h36 (antibody, human IgG1, V domains shown)
VH: EVQLLESGGGLVQPGGSLRLSCAASGYAFSSSWMNWVRQAPGKGLEWIGRIYPGDGDTNYAQKFQGRATISADTSKNTAYLQMNSLRAEDTAVYYCARLLRNQPGESYAMDYWGQGTLVTVSS
VL: DVVMTQTPLSLSVTPGQPASISCRSSQSLVHSNGYTYLHWYLQKPGQSPQLLIYKVSNRFSGVPDRFSGSGSGTDFTLKISRVEAEDLGVYFCSQSTRVPYTFGQGTKLEIK
Take B2: the “Soluble luciferase activation at 10 µg/ml Fold over control” value in test [3] turned out to be 4.13 fold over control.

B3: AL2p-h42 (antibody, human IgG1, V domains shown)
VH: QVQLVQSGAEVKKPGASVKVSCKASGYAFSSSWMNWVRQAPGQRLEWMGRIYPGDGDTNYAQKFQGRVTITRDTSASTAYMELSSLRSEDTAVYYCARLLRNQPGESYAMDYWGQGTLVTVSS
VL: DVVMTQTPLSLSVTPGQPASISCRSSQSLVHSNGYTYLHWYLQKPGQSPQLLIYKVSNRFSGVPDRFSGSGSGTDFTLKISRVEAEDVGVYYCSQSTRVPYTFGQGTKLEIK
notes: as for B1
B3 registered a Kd in test [1] of 141 nM. In addition, the “cell binding (FOB)” value in test [2] was determined as 79 FOB. Moreover, the “Soluble luciferase activation at 10 µg/ml Fold over control” value in test [3] was 9.29 fold over control.

B4: AL2p-h35 (antibody, human IgG1, V domains shown)
VH: QVQLVQSGAEVKKPGSSVKVSCKASGYAFSSSWMNWVRQAPGQGLEWMGRIYPGDGDTNYAQKFQGRATITADTSTSTAYMELSSLRSEDTAVYYCARLLRNQPGESYAMDYWGQGTLVTVSS
VL: DVVMTQTPLSLSVTPGQPASISCRSSQSLVHSNGYTYLHWYLQKPGQSPQLLIYKVSNRFSGVPDRFSGSGSGTDFTLKISRVEAEDLGVYFCSQSTRVPYTFGQGTKLEIK
notes: as for B1
B4 returned a Kd in test [1] of 127 nM. In addition, the “cell binding (FOB)” value in test [2] came to 69 FOB. The “Soluble luciferase activation at 10 µg/ml Fold over control” value in test [3] came out at 6.81 fold over control.

B5: AL2p-h34 (antibody, human IgG1, V domains shown)
VH: QVQLVQSGAEVKKPGSSVKVSCKASGYAFSSSWMNWVRQAPGQGLEWIGRIYPGDGDTNYAQKFQGRATITADTSTSTAYMELSSLRSEDTAVYFCARLLRNQPGESYAMDYWGQGTLVTVSS
VL: DVVMTQTPLSLSVTPGQPASISCRSSQSLVHSNGYTYLHWYLQKPGQSPQLLIYKVSNRFSGVPDRFSGSGSGTDFTLKISRVEAEDLGVYFCSQSTRVPYTFGQGTKLEIK
notes: as for B1
B5 yielded a Kd in test [1] of 142 nM. Besides, the “cell binding (FOB)” value in test [2] stood at 84 FOB. The “Soluble luciferase activation at 10 µg/ml Fold over control” value in test [3] stood at 6.92 fold over control.

B6: AL2p-h30 (antibody, human IgG1, V domains shown)
VH: QVQLVQSGAEVKKPGASVKVSCKASGYAFSSSWMNWVRQAPGQGLEWMGRIYPGDGDTNYAQKFQGRVTMTADTSTSTAYMELSSLRSEDTAVYYCARLLRNQPGESYAMDYWGQGTLVTVSS
VL: DVVMTQTPLSLSVTPGQPASISCRSSQSLVHSNGYTYLHWYLQKPGQSPQLLIYKVSNRFSGVPDRFSGSGSGTDFTLKISRVEAEDLGVYFCSQSTRVPYTFGQGTKLEIK
notes: as for B1
In turn, B6 gave a Kd in test [1] of 181 nM. In test [2], the “cell binding (FOB)” value came out at 88 FOB. In addition, the “Soluble luciferase activation at 10 µg/ml Fold over control” value in test [3] came to 6.01 fold over control.

B7: AL2p-h33 (antibody, human IgG1, V domains shown)
VH: QVQLVQSGAEVKKPGSSVKVSCKASGYAFSSSWMNWVRQAPGQGLEWIGRIYPGDGDTNYAQKFQGRATLTADTSTTTAYMELSSLRSEDTAVYFCARLLRNQPGESYAMDYWGQGTLVTVSS
VL: DVVMTQTPLSLSVTPGQPASISCRSSQSLVHSNGYTYLHWYLQKPGQSPQLLIYKVSNRFSGVPDRFSGSGSGTDFTLKISRVEAEDLGVYFCSQSTRVPYTFGQGTKLEIK
notes: as for B1
The molecule B7 showed a Kd in test [1] of 225 nM. Also, the “cell binding (FOB)” value in test [2] is 74 FOB. In addition, the “Soluble luciferase activation at 10 µg/ml Fold over control” value in test [3] was 6.21 fold over control.

B8: AL2p-h21 (antibody, human IgG1, V domains shown)
VH: QVQLVQSGAEVKKPGASVKVSCKASGYAFSSSWMNWVRQAPGQGLEWMGRIYPGDGDTNYAQKFQGRVTMTRDTSTSTVYMELSSLRSEDTAVYYCARLLRNQPGESYAMDYWGQGTLVTVSS
VL: DVVMTQTPLSLSVTPGQPASISCRSSQSLVHSNGYTYLHWYLQKPGQSPQLLIYKVSNRFSGVPDRFSGSGSGTDFTLKISRVEAEDLGVYFCSQSTRVPYTFGQGTKLEIK
notes: as for B1
In test [1], B8 registered a Kd of 137 nM. For the same molecule, the “cell binding (FOB)” value in test [2] stood at 76 FOB. Also, in test [3], the “Soluble luciferase activation at 10 µg/ml Fold over control” value turned out to be 6.28 fold over control.

B9: AL2p-h23 (antibody, human IgG1, V domains shown)
VH: QVQLVQSGAEVKKPGASLKISCKASGYAFSSSWMNWVRQAPGQGLEWIGRIYPGDGDTNYAQKFQGRATLTADTSTSTAYMELSSLRSEDTAVYYCARLLRNQPGESYAMDYWGQGALVTVSS
VL: DVVMTQTPLSLSVTPGQPASISCRSSQSLVHSNGYTYLHWYLQKPGQSPQLLIYKVSNRFSGVPDRFSGSGSGTDFTLKISRVEAEDLGVYFCSQSTRVPYTFGQGTKLEIK
notes: as for B1
Regarding B9, the Kd in test [1] is 334 nM. Also, the “cell binding (FOB)” value in test [2] worked out at 76 FOB. The “Soluble luciferase activation at 10 µg/ml Fold over control” value in test [3] was 5.38 fold over control.

B10: AL2p-h26 (antibody, human IgG1, V domains shown)
VH: QVQLVQSGAEVKKPGASVKVSCKASGYAFSSSWMNWVRQAPGQRLEWIGRIYPGDGDTNYAQKFQGRVTITADTSASTAYMELSSLRSEDTAVYYCARLLRNQPGESYAMDYWGQGTLVTVSS
VL: DVVMTQTPLSLSVTPGQPASISCRSSQSLVHSNGYTYLHWYLQKPGQSPQLLIYKVSNRFSGVPDRFSGSGSGTDFTLKISRVEAEDLGVYFCSQSTRVPYTFGQGTKLEIK
notes: as for B1
In the case of B10, the Kd in test [1] turned out to be 95.3 nM. In addition, in test [2], the “cell binding (FOB)” value was 78 FOB. Also, the “Soluble luciferase activation at 10 µg/ml Fold over control” value in test [3] turned out to be 7.25 fold over control.

B11: AL2p-h29 (antibody, human IgG1, V domains shown)
VH: QVQLVQSGAEVKKPGASVKVSCKASGYAFSSSWMNWVRQAPGQGLEWIGRIYPGDGDTNYAQKFQGRATMTADTSTSTAYMELSSLRSEDTAVYYCARLLRNQPGESYAMDYWGQGTLVTVSS
VL: DVVMTQTPLSLSVTPGQPASISCRSSQSLVHSNGYTYLHWYLQKPGQSPQLLIYKVSNRFSGVPDRFSGSGSGTDFTLKISRVEAEDLGVYFCSQSTRVPYTFGQGTKLEIK
Regarding B11, the “Soluble luciferase activation at 10 µg/ml Fold over control” value in test [3] is 5.8 fold over control.

B12: AL2p-h22 (antibody, human IgG1, V domains shown)
VH: QVQLVQSGAEVKKPGASVKVSCKASGYAFSSSWMNWVRQAPGQGLEWIGRIYPGDGDTNYAQKFQGRVTMTADTSTSTVYMELSSLRSEDTAVYYCARLLRNQPGESYAMDYWGQGTLVTVSS
VL: DVVMTQTPLSLSVTPGQPASISCRSSQSLVHSNGYTYLHWYLQKPGQSPQLLIYKVSNRFSGVPDRFSGSGSGTDFTLKISRVEAEDLGVYFCSQSTRVPYTFGQGTKLEIK
notes: as for B1
B12 had a dissociation constant Kd in test [1] of 325 nM. In addition, the “cell binding (FOB)” value in test [2] came to 61 FOB. For the same molecule, the “Soluble luciferase activation at 10 µg/ml Fold over control” value in test [3] amounted to 5 fold over control.

B13: AL2p-h44 (antibody, human IgG1, V domains shown)
VH: QVQLVQSGAEVKKPGASLKVSCKASGYAFSSSWMNWVRQAPGQRLEWIGRIYPGDGDTNYAQKFQGRATLTADTSASTAYMELSSLRSEDTAVYFCARLLRNQPGESYAMDYWGQGTLVTVSS
VL: DVVMTQTPLSLSVTPGQPASISCRSSQSLVHSNGYTYLHWYLQKPGQSPQLLIYKVSNRFSGVPDRFSGSGSGTDFTLKISRVEAEDVGVYYCSQSTRVPYTFGQGTKLEIK
notes: as for B1
For B13, the Kd in test [1] is 180 nM. The “cell binding (FOB)” value in test [2] came out at 80 FOB. Further, the “Soluble luciferase activation at 10 µg/ml Fold over control” value in test [3] came to 7.29 fold over control.

B14: AL2p-h28 (antibody, human IgG1, V domains shown)
VH: QVQLVQSGAEVKKPGASVKVSCKASGYAFSSSWMNWVRQAPGQGLEWIGRIYPGDGDTNYAQKFQGRATLTADTSTSTAYMELSSLRSEDTAVYFCARLLRNQPGESYAMDYWGQGTLVTVSS
VL: DVVMTQTPLSLSVTPGQPASISCRSSQSLVHSNGYTYLHWYLQKPGQSPQLLIYKVSNRFSGVPDRFSGSGSGTDFTLKISRVEAEDLGVYFCSQSTRVPYTFGQGTKLEIK
As for B14, in test [3], the “Soluble luciferase activation at 10 µg/ml Fold over control” value is 5.59 fold over control.
